B1: TM1769, small subunit of Thermotoga maritima Exonuclease VII (XseB homolog) (natural protein, UniProt Q9X290 1-75, looked up)
chain: MNFEEMMKELEEIVNRLENEDLPLEESIKLFERGVELYRKCKEILQQNRLKIIDVMKELEGEIDASGRDQENELR

Columns and labels:
[1] = biological target: B1; assay: SEC
SEC = biological target: the molecule itself; assay: SEC

stoichiometry N [1] [TM1769 per TM1768] | Binder | stoichiometry N (SEC)
~4 | TM1768, large subunit of Thermotoga maritima Exonuclease VII (XseA homolog) (enzyme, UniProt Q9X289 1-394, looked up) MKDYTYSVTEINEYIKDLIEGDPYLTNVSVYGEISGVRPRKGHIFFSLVEENARLECVIFGGDNMGIRLQEGRMALVEGSVSVYIPHGTYRFICSNVRYLDQAGMYQIKFETTLKKLLEEGLLSRPKKTVPRFPRKIGIITSRDSAALQDVIRTARERKAPIEIYVFHTSVQGDSAREELIKALRKANEYDLDLVMIVRGGGSKEDLWVFNEEDVIREILRLRHPVVTGIGHEIDRVIADFVADVSMHTPTGAAEYVIPDASEIHEDLDSFFEKLITSLSNRFDMEERRLETLYFRLRMIGRRKLELNEFKIERVKELAAKLRKKLMDYFEHNQKKLDSLGRMLESLNPLRPLERGFVLVKKDEKIVKESTDLKRGDVVSLVFKDGTKKAQVIG | –
– | B1 | 4

— publication PMC2566859 (Nucleic Acids Research, 2008)
